From patent publication US20220089710A1, “Method of Treating Signs and Symptoms of Osteoarthritis” (Pfizer Inc., priority 2019, published 2022)

Test system: patients with osteoarthritis (OA) of the knee or hip
Experiment: Example 3: treatment-emergent adverse events and deaths, Safety Population;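 further: seven SC injections given 8 weeks apart plus twice-daily oral study medication up to Week 56, Safety Population of all patients dosed at least once SC, analyzed by treatment actually received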
Experimental: Patients received a total of seven SC injections, each separated by 8 weeks and daily oral (PO) study medication BID through Week 56.
The Intent-to-Treat (ITT) Population included all patients who were randomized and received at least one dose of SC study drug. This analysis set was primary for all efficacy endpoints, which were analyzed according to randomization assignment. The Safety Population included all patients who received at least one dose of SC study treatment. This analysis set was primary for all safety endpoints, which were analyzed according to treatment received.

tanezumab: humanized immunoglobulin G Type 2 (IgG2) monoclonal antibody directed against human nerve growth factor (NGF); SEQ ID NOs: 9 or 11 and 10
Serious AE Gastrointestinal hemorrhage: n (2.5 mg SC, treatment period): 0
Serious AE Intervetebral disc protrusion: n (2.5 mg SC, treatment period): 0
Serious AE Meniscus injury: % (2.5 mg SC, treatment period): 0.1%
Serious AE Meniscus injury: n (2.5 mg SC, treatment period): 1
Serious AE Osteoarthritis: % (2.5 mg SC, treatment period): 0.9%
Serious AE Osteoarthritis: n (2.5 mg SC, treatment period): 9
Serious AE Osteonecrosis: n (2.5 mg SC, treatment period): 0
Serious AE Pneumonia: % (2.5 mg SC, treatment period): 0.1%
Serious AE Pneumonia: n (2.5 mg SC, treatment period): 1
Serious AE RPOA: % (2.5 mg SC, treatment period): 0.3%
Serious AE RPOA: n (2.5 mg SC, treatment period): 3
Serious AE Subchondral insufficiency fracture: % (2.5 mg SC, treatment period): 0.1%
Serious AE Subchondral insufficiency fracture: n (2.5 mg SC, treatment period): 1
Serious Adverse Event (any event): % of patients (2.5 mg SC, treatment period): 5.1%
Serious Adverse Event (any event): number of patients (2.5 mg SC, treatment period): 51
Severe Adverse Event: % of patients (2.5 mg SC, treatment period): 4.5%
Severe Adverse Event: number of patients (2.5 mg SC, treatment period): 45
Upper respiratory tract infection: number of patients (2.5 mg SC, treatment period): 57
deaths: patients (5 mg SC, after patient discontinuation from the study): 1
deaths: patients (5 mg SC, during the safety follow-up period): 1
deaths: patients (5 mg SC, during the treatment period): 3
Adverse Event: % of patients (5 mg SC, treatment period): 67.1%
Adverse Event: number of patients (5 mg SC, treatment period): 670
Arthralgia: % of patients (5 mg SC, treatment period): 16.5%
Arthralgia: number of patients (5 mg SC, treatment period): 165
Back pain: % of patients (5 mg SC, treatment period): 5.5%
Back pain: number of patients (5 mg SC, treatment period): 55
Discontinued from study (adverse event): % of patients (5 mg SC, treatment period): 2.0%
Discontinued from study (adverse event): number of patients (5 mg SC, treatment period): 20
Discontinued study drug and continued study (adverse event): % of patients (5 mg SC, treatment period): 8.8%
Discontinued study drug and continued study (adverse event): number of patients (5 mg SC, treatment period): 88
Fall: % of patients (5 mg SC, treatment period): 5.3%
Fall: number of patients (5 mg SC, treatment period): 53
Headache: % of patients (5 mg SC, treatment period): 4.5%
Headache: number of patients (5 mg SC, treatment period): 45
Joint swelling: % of patients (5 mg SC, treatment period): 4.8%
Joint swelling: number of patients (5 mg SC, treatment period): 48
Musculoskeletal pain: % of patients (5 mg SC, treatment period): 4.1%
Musculoskeletal pain: number of patients (5 mg SC, treatment period): 41
Nasopharyngitis: % of patients (5 mg SC, treatment period): 6.7%
Nasopharyngitis: number of patients (5 mg SC, treatment period): 67
Osteoarthritis: % of patients (5 mg SC, treatment period): 5.4%
Osteoarthritis: number of patients (5 mg SC, treatment period): 54
Pain in extremity: % of patients (5 mg SC, treatment period): 3.7%
Pain in extremity: number of patients (5 mg SC, treatment period): 37
Paraesthesia: % of patients (5 mg SC, treatment period): 3.0%
Paraesthesia: number of patients (5 mg SC, treatment period): 30
Peripheral edema: % of patients (5 mg SC, treatment period): 4.3%
Peripheral edema: number of patients (5 mg SC, treatment period): 43
Rapidly progressive osteoarthritis (adverse event): % of patients (5 mg SC, treatment period): 4.1%
Rapidly progressive osteoarthritis (adverse event): number of patients (5 mg SC, treatment period): 41
Serious AE Acute kidney injury: % (5 mg SC, treatment period): 0.2%
Serious AE Acute kidney injury: n (5 mg SC, treatment period): 2
Serious AE Acute myocardial infarction: % (5 mg SC, treatment period): 0.1%
Serious AE Acute myocardial infarction: n (5 mg SC, treatment period): 1
Serious AE Arthralgia: % (5 mg SC, treatment period): 0.9%
Serious AE Arthralgia: n (5 mg SC, treatment period): 9
Serious AE Cellulitis: % (5 mg SC, treatment period): 0.2%
Serious AE Cellulitis: n (5 mg SC, treatment period): 2
Serious AE Cerebrovascular accident: n (5 mg SC, treatment period): 0
Serious AE Gastrointestinal hemorrhage: n (5 mg SC, treatment period): 0
Serious AE Intervetebral disc protrusion: % (5 mg SC, treatment period): 0.2%
Serious AE Intervetebral disc protrusion: n (5 mg SC, treatment period): 2
Serious AE Meniscus injury: % (5 mg SC, treatment period): 0.3%
Serious AE Meniscus injury: n (5 mg SC, treatment period): 3
Serious AE Osteoarthritis: % (5 mg SC, treatment period): 1.7%
Serious AE Osteoarthritis: n (5 mg SC, treatment period): 17
Serious AE Osteonecrosis: % (5 mg SC, treatment period): 0.2%
Serious AE Osteonecrosis: n (5 mg SC, treatment period): 2
Serious AE Pneumonia: % (5 mg SC, treatment period): 0.2%
Serious AE Pneumonia: n (5 mg SC, treatment period): 2
Serious AE RPOA: % (5 mg SC, treatment period): 1.1%
Serious AE RPOA: n (5 mg SC, treatment period): 11
Serious AE Subchondral insufficiency fracture: % (5 mg SC, treatment period): 0.4%
Serious AE Subchondral insufficiency fracture: n (5 mg SC, treatment period): 4
Serious Adverse Event (any event): % of patients (5 mg SC, treatment period): 8.0%
Serious Adverse Event (any event): number of patients (5 mg SC, treatment period): 80
Severe Adverse Event: % of patients (5 mg SC, treatment period): 6.8%
Severe Adverse Event: number of patients (5 mg SC, treatment period): 68
Upper respiratory tract infection: number of patients (5 mg SC, treatment period): 45
